B1: insulin-Fc fusion protein of SEQ ID NO: 116 (Fc fusion)
chain: FVNQHLCGSHLVEALALVCGERGFFYTDPAGGGPRRGIVEQCCASVCSLYQLEHYCGGGGAGGGGGEGPKCPVPEIPGAPSVFIFPPKPKDTLSISRTPEVTCLVVDLGPDDSNVQITWFVDNTEMHTAKTRPREEQFSSTYRVVSVLPILHQDWLKGKEFKCKVNSKSLPSAMERTISKAKGQPHEPQVYVLPPTQEELSENKVSVTCLIKGFHPPDIAVEWEITGQPEPENNYQTTPPQLDSDGTYFLYSRLSVDRSHWQRGNTYTCSVSHEALHSHHTQKSLTQSPG
notes: homodimer
B2: insulin-Fc fusion protein of SEQ ID NO: 114 (Fc fusion)
chain: FVNQHLCGSHLVEALALVCGERGFFYTDPAGGGPRRGIVEQCCASVCSLYQLEHYCGGGGAGGGGGEGPKCPVPEIPGAPSVFIFPPKPKDTLSISRTPEVTCLVVDLGPDDSNVQITWFVDNTEMHTAKTRPREEQFNSTYRVVSVLPILHQDWLKGKEFKCKVNSKSLPSAMERTISKAKGQPHEPQVYVLPPTQEELSENKVSVTCLIKGFHPPDIAVEWEITGQPEPENNYQTTPPQLDSDGTYFLYSRLSVDRSHWQRGNTYTCSVSHEALHSHHTQKSLTQSP
notes: homodimer
B3: insulin-Fc fusion protein of SEQ ID NO: 36 (Fc fusion)
chain: FVNQHLCGSHLVEALALVCGERGFHYGGGGGGSGGGGGIVEQCCTSTCSLDQLENYCGGGGGQGGGGQGGGGQGGGGGDCPKCPAPEMLGGPSVFIFPPKPKDTLLIARTPEVTCVVVDLDPEDPEVQISWFVDGKQMQTAKTQPREEQFSGTYRVVSVLPIGHQDWLKGKQFTCKVNNKALPSPIERTISKARGQAHQPSVYVLPPSREELSKNTVSLTCLIKDFFPPDIDVEWQSNGQQEPESKYRTTPPQLDEDGSYFLYSKLSVDKSRWQRGDTFICAVMHEALHNHYTQESLSHSPG
notes: homodimer; also called cNg-S and B16A
B4: insulin-Fc fusion protein of SEQ ID NO: 104 (Fc fusion)
chain: FVNQHLCGSHLVEALELVCGERGFHYGGGGGGSGGGGGIVEQCCTSTCSLDQLENYCGGGGGQGGGGQGGGGQGGGGGDCPKCPAPEMLGGPSVFIFPPKPKDTLLIARTPEVTCVVVDLDPEDPEVQISWFVDGKQMQTAKTQPREEQFSGTYRVVSVLPIGHQDWLKGKQFTCKVNNKALPSPIERTISKARGQAHQPSVYVLPPSREELSKNTVSLTCLIKDFFPPDIDVEWQSNGQQEPESKYRTTPPQLDEDGSYFLYSKLSVDKSRWQRGDTFICAVMHEALHNHYTQESLSHSPG
notes: 71% homodimer; also called cNg-NB151-S
B5: insulin-Fc fusion protein of SEQ ID NO: 102 (Fc fusion)
chain: FVNQHLCGSHLVEALELVCGERGFHYGGGGGGSGGGGGIVEQCCTSTCSLDQLENYCGGGGGQGGGGQGGGGQGGGGGDCPKCPAPEMLGGPSVFIFPPKPKDTLLIARTPEVTCVVVALDPEDPEVQISWFVDGKQMQTAKTQPREEQFSGTYRVVSVLPIGHQDWLKGKQFTCKVNNKALPSPIERTISKARGQAHQPSVYVLPPSREELSKNTVSLTCLIKDFFPPDIDVEWQSNGQQEPESKYRTTPPQLDEDGSYFLYSKLSVDKSRWQRGDTFICAVMHEALHNHYTQESLSHSPG
notes: 73% homodimer; also called cNg-NB151-S, NB119-A
B6: insulin-Fc fusion protein of SEQ ID NO: 118 (Fc fusion)
chain: FVNQHLCGSHLVEALALVCGERGFFYTDPAGGGPRRGIVEQCCASVCSLYQLEHYCGGGGAGGGGDCPKCPPPEMLGGPSIFIFPPKPKDTLSISRTPEVTCLVVALGPDDSDVQITWFVDNTQVYTAKTSPREEQFSSTYRVVSVLPILHQDWLKGKEFKCKVNSKSLPSPIERTISKDKGQPHEPQVYVLPPAQEELSRNKVSVTCLIEGFYPSDIAVEWEITGQPEPENNYRTTPPQLDSDGTYFLYSRLSVDRSRWQRGNTYTCSVSHEALHSHHTQKSLTQSPG
notes: homodimer
B7: insulin-Fc fusion protein of SEQ ID NO: 96 (Fc fusion)
chain: FVNQHLCGSHLVEALELVCGERGFHYGGGGGGSGGGGGIVEQCCTSTCSLDQLENYCGGGGGQGGGGQGGGGQGGGGGRCTDTPPCPVPEPLGGPSVLIFPPKPKDILRITRTPEVTCVVLDLGREDPEVQISWFVDGKEVHTAKTQSREQQFNGTYRVVSVLPIEHQDWLTGKEFKCRVNHIDLPSPIERTISKARGRAHKPSVYVLPPSPKELSSSDTVSITCLIKDFYPPDIDVEWQSNGQQEPERKHRMTPPQLDEDGSYFLYSKLSVDKSRWQQGDPFTCAVMHETLQNHYTDLSLSHSPG
notes: purified on Protein A or Protein G
B8: insulin-Fc fusion protein of SEQ ID NO: 56 (Fc fusion)
chain: FVNQHLCGSDLVEALALVCGERGFFYTDPTGGGPRRGIVEQCCHSICSLYQLENYCNGGGGAGGGGCISPCPVPESLGGPSVFIFPPKPKDILRITRTPEITCVVLDLGREDPEVQISWFVDGKEVHTAKTQPREQQFNSTYRVVSVLPIEHQDWLTGKEFKCRVNHIGLPSPIERTISKARGQAHQPSVYVLPPSPKELSSSDTVTLTCLIKDFFPPEIDVEWQSNGQPEPESKYHTTAPQLDEDGSYFLYSKLSVDKSRWQQGDTFTCAVMHEALQNHYTDLSLSHSPG
notes: only 12% homodimer (aggregated)
B9: insulin-Fc fusion protein of SEQ ID NO: 52 (Fc fusion)
chain: FVNQHLCGSDLVEALALVCGERGFFYTDPTGGGPRRGIVEQCCHSICSLYQLENYCNGGGGAGGGGDCPKCPAPEMLGGPSVFIFPPKPKDTLLIARTPEVTCVVVDLDPEDPEVQISWFVDGKQMQTAKTQPREEQFNGTYRVVSVLPIGHQDWLKGKQFTCKVNNKALPSPIERTISKARGQAHQPSVYVLPPSREELSKNTVSLTCLIKDFFPPDIDVEWQSNGQQEPESKYRTTPPQLDEDGSYFLYSKLSVDKSRWQRGDTFICAVMHEALHNHYTQESLSHSPG
notes: Homodimer; HEK293, Protein A
B10: insulin-Fc fusion protein of SEQ ID NO: 64 (Fc fusion)
chain: FVNQHLCGSDLVEALALVCGERGFFYTDPTGGGPRRGIVEQCCHSICSLYQLENYCNGGGGAGGGGDCPKCPAPEMLGGPSVFIFPPKPKDTLLIARTPEVTCVVVDLDPEDPEVQISWFVDGKQMQTAKTQPREEQFKGTYRVVSVLPIGHQDWLKGKQFTCKVNNKALPSPIERTISKARGQAHQPSVYVLPPSREELSKNTVSLTCLIKDFFPPDIDVEWQSNGQQEPESKYRTTPPQLDEDGSYFLYSKLSVDKSRWQRGDTFICAVMHEALHNHYTQESLSHSPG
notes: homodimer; also called cNg-K; cNg-NB139-K

Legend:
[1] = target: T1, human insulin receptor (human, UniProt P06213 28-1382); experiment: competition with biotinylated RHI on IM-9 cells, flow cytometry, 4 C
T1 construct: whole, on cells; Endogenous receptor on IM-9 cells; also called IR
Description: 40 μL of an IM-9 cell suspension (8×10⁶ cells/mL) was then added to each well by multichannel pipette, mixed again gently and incubated on ice for 30 min to allow competitive binding on the insulin receptor on IM-9 cells. Cells were then washed twice with 275 μL of ice-cold FACS wash buffer (HBSS/2 mM EDTA/0.1% Na-azide+0.5% horse serum) by centrifuging the V-bottom plate at 3000 rpm for 3 min and aspirating the supernatant. Cells were then resuspended in 40 μL of FACS staining medium containing 1:100 diluted Streptavidin-PE (Life Technologies) for 20 min on ice. Cells were then washed once with 275 μL of ice-cold FACS buffer and finally fixed with 3% paraformaldehyde for 10 min at room temp. Cells were then washed once with 275 μL of ice-cold FACS buffer and resuspended in 250 μl of FACS buffer for analysis.
The V-bottom plates containing cells were then analyzed on a Guava 8-HT flow cytometer (Millipore). Biotinylated-RHI binding to insulin receptor was quantitated by the median fluorescence intensity (MFI) of the cells on the FACS FL-2 channel for each concentration of the test compound. Control wells were labeled only with biotinylated-RHI and were used to calculate the percent (%) inhibition resulting from each test compound concentration. The % inhibition by test compounds of biotinylated-RHI binding on IM-9 cells was plotted against log concentrations of the test compound, and the resulting IC50 values were calculated using GraphPad Prism (GraphPad Software, La Jolla, CA) for the test compounds. Lower IC50 values of the test compound therefore indicate greater levels of biotinylated-RHI inhibition at lower concentrations indicating stronger binding of the insulin-Fc fusion protein to the insulin receptor. A control compound, such as unlabeled recombinant human insulin (RHI) was also used as an internal standard to generate an RHI IC50 against which a given compound IC50 could be ratioed (IC50(compound)/IC50(RHI)). Lower IC50 ratios have more similar binding to RHI (stronger binding to insulin receptor), while higher IC50 ratios have weaker binding to the insulin receptor relative to RHI.

[2] = target: T2, biotinylated recombinant human Fc(gamma) receptor I (human, UniProt P12314 16-288, biotinylated (site not stated)); experiment: ELISA, fusion protein coated, biotinylated rhFc(gamma)RI at 3000 ng/mL, pH 7.4
T2 construct: Bought reagent, used as surrogate for canine/feline Fc(gamma)RI; also called rhFc(gamma) receptor I; Fc(gamma)RI
Description: (§1) The binding of insulin-Fc fusion proteins to the Fc(gamma) receptor I at pH 7.4 was conducted using an ELISA assay as follows. Since neither canine nor feline Fc(gamma) receptor I was not commercially available, human Fc(gamma) receptor I (i.e., rhFc(gamma) receptor I) was used as a surrogate mammalian receptor. Insulin-Fc compounds were diluted to 10 μg/mL in sodium bicarbonate buffer at pH 9.6 and coated on Maxisorp (Nunc) microtiter plates overnight at 4° C., after which the microplate strips were washed 5 times with PBST (PBS/0.05% Tween-20) buffer and blocked with Superblock blocking reagent (ThermoFisher). Serial dilutions of biotinylated rhFc(gamma) receptor I (recombinant human Fc(gamma)R-I; R&D Systems) were prepared in PBST/10% Superblock buffer from 6000 ng/mL to 8.2 ng/mL and loaded at 100 μL/well onto the microplate strips coated with insulin-Fc fusion protein. The microtiter plate was incubated for 1 hour at room temperature after which the microplate strips were washed 5 times with PBST and then loaded with 100 μL/well of streptavidin-HRP diluted 1:10000 in PBST/10% Superblock buffer. After incubating for 45 min, the microplate strips were washed again 5 times with PBST. TMB was added to reveal the bound Fc(gamma) receptor I proteins and stopped with ELISA stop reagent (Boston Bioproducts). The plate was read in an ELISA plate reader at 450 nm, and the OD values (proportional to the binding of rhFc(gamma) receptor I to insulin-Fc protein) were plotted against log concentrations of rhFc(gamma) receptor I added to each well to generate binding curves using GraphPad Prism software.
Finally, select compounds were tested for their likelihood to interact with the immune system by measuring their Fc(gamma) receptor binding activity according to the procedure of Example 8. Table 19 compares the Fc(gamma) receptor I binding of these insulin-Fc fusion proteins with the Fc(gamma) receptor binding of the insulin-Fc fusion protein of SEQ ID NO: 52.

[3] = target: T2, biotinylated recombinant human …; experiment: ELISA, fusion protein coated, biotinylated rhFc(gamma)RI in solution, pH 7.4
Description: as §1
Low Fc(gamma) receptor binding is most likely to correlate with minimum immunogenicity.

T2 sequence (P12314 16-288 limits assumed): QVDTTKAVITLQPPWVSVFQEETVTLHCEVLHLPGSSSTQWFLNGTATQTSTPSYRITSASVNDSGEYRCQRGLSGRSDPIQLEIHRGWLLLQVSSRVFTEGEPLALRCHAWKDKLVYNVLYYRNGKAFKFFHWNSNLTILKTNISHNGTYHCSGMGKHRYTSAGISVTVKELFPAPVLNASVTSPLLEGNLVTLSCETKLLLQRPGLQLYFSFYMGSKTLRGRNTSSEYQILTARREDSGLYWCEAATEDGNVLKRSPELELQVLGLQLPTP
T1 sequence (P06213 28-1382): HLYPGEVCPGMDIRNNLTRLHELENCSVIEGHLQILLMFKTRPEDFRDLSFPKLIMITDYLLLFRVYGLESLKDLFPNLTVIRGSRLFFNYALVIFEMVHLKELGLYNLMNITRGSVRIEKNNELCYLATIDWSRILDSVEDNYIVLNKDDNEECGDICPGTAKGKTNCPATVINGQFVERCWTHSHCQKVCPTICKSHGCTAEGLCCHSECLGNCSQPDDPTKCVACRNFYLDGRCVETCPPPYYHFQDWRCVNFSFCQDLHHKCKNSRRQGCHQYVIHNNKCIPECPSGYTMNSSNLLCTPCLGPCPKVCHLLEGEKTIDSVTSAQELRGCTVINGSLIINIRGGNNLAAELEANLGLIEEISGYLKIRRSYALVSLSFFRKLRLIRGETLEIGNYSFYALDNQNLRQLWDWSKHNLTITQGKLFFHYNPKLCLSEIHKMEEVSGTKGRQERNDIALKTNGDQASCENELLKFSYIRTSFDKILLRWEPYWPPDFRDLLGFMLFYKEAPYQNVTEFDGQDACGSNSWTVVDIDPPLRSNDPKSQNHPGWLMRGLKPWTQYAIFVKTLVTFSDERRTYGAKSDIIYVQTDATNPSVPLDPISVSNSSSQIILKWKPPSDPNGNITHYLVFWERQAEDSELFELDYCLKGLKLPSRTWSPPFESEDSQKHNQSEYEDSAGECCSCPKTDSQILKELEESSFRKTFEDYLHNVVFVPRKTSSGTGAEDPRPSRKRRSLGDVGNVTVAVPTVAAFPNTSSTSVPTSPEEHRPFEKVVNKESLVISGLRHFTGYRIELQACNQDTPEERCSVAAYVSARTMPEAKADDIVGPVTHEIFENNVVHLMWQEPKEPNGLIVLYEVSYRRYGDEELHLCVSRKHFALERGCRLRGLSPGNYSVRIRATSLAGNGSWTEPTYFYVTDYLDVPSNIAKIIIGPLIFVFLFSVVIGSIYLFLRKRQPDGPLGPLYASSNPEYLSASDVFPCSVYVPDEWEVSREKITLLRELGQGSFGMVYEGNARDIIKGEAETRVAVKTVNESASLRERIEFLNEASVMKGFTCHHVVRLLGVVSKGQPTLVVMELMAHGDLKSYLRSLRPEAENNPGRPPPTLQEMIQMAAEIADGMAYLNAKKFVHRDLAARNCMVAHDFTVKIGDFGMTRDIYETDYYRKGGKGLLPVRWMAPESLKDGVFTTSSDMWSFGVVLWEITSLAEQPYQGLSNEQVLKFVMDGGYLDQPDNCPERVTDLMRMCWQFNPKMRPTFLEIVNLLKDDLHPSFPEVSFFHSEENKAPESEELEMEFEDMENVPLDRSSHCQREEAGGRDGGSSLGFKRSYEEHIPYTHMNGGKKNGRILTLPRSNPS

| Binder | IC50 [1] | OD450 nm at a Fc(gamma)RI concentration of 3000 (ng/mL) [2] | Ratio to SEQ ID NO: 52 [2] | also measured |
| --- | --- | --- | --- | --- |
| B1 | 707 nM | – | – | – |
| B2 | 3480 nM | – | – | – |
| B3 | – | 0.177 OD450 | 0.32 ratio | – |
| B4 | – | 0.175 OD450 | 0.32 ratio | – |
| B5 | – | 0.166 OD450 | 0.29 ratio | – |
| B6 | > 5000 nM | – | – | – |
| B7 | – | 0.253 OD450 | 0.53 ratio | – |
| B8 | > 5000 nM | – | – | – |
| B9 | 28 nM | 0.428 OD450 | 1 ratio | OD450 nm Minus Assay Background [3]: 0.323 OD450; Ratio to SEQ ID NO: 52 [3]: 1 ratio; OD450 nm Minus Assay Background [2]: 0.371 OD450 |
| B10 | – | – | – | Ratio to SEQ ID NO: 52 [3]: 0.2 ratio |

— patent US20240101635A1 (AKSTON BIOSCIENCES, published 2024)
